Reference: US8058396B2, “Cystatin C as an antagonist of TGF-β and methods related thereto” (National Jewish Health, priority 2003, dated 2011)

What was measured:
[1] = tested on: HT1080 fibrosarcoma cells; experiment: HT1080 cell invasion through Matrigel matrices; format: cell-based, human; details: retroviral expression in HT1080 cells; 48 hr; relative to GFP-expressing cells; p<0.05
Protocol: The effect CystC and D14CystC on the invasion of HT1080 and 3T3-L1 cells was determined as described previously (42). Briefly, upper chambers were coated with 100 μl of diluted Matrigel (1:50 in serum-free media), which was allowed to evaporate to dryness overnight at room temperature. The following morning the Matrigel mixtures were rehydrated and subsequently cultured with control-, CystC-, or D14CystC-expressing HT1080 or 3T3-L1 cells at a density of 100,000 cells/chamber. Cellular invasion was stimulated by addition of 2% serum to the lower chambers. Forty-eight hr later, the cells were washed twice in ice-cold PBS and immediately fixed for 15 min with 95% ethanol. Cells remaining in the upper chambers were removed with a cotton swab, whereas those remaining in the lower chamber were stained with crystal violet. Quantifying invading cells was determined through two independent measures, which yielded identical results: (i) manual counting under a light microscope, and (ii) crystal violet dye extraction by incubation of the membranes in 10% acetic acid, followed by spectrophotometry at 590 nm.
Cathepsin B is a lysosomal cysteine proteinase that functions in intracellular protein catabolism, as well as in bone resorption, hormone activation, and antigen processing (5). During tumorigenesis, cancer cells express a cathepsin B splice variant whose protein product is secreted into the extracellular milieu (5) and localized to the leading edge of invasive tumors (19), thereby promoting cancer cell invasion and metastasis. However, recent evidence has questioned the role of intracellular versus extracellular cathepsin B in promoting cancer cell invasion (20). To distinguish between these two possibilities, human HT1080 fibrosarcoma cells that stably express the murine ecotropic receptor (21) were infected with control (i.e., GFP), CystC, or Δ14CystC retrovirus. Afterward, cells that expressed GFP were isolated by flow cytometry to establish stable polyclonal populations of control-, CystC-, and Δ14CystC-expressing HT1080 cells (data not shown). The inventor chose to study HT1080 cells because they are highly invasive, and because they express large quantities of secreted cathepsin B and comparably little CystC (22). Thus, if extracellular cathepsin B mediates HT1080 cell invasion, it was hypothesized that overexpression of secreted CystC would attenuate their invasion through synthetic basement membranes.
Briefly, GFP-, CystC-, or Δ14CystC-expressing HT0180 cells were allowed to invade through Matrigel-coated membranes for 48 hr. Data shown in FIG. 1A are the mean (±SE) of three (Δ14CystC) and nine (GFP and CystC) independent experiments presented as the percent invasion relative to GFP-expressing HT1080 cells (***, p<0.05; Student's T-Test).

TGF-β signaling [2] = experiment: p3TP-luciferase reporter gene assay in HT1080 cells; format: cell-based, human; details: expression in HT1080 cells; TGF-β1 0-5 ng/ml
Protocol: (§1) Analysis of luciferase activity driven by the synthetic p3TP reporter ((26); generously provided by Dr. Joan Massague, Sloan Kettering) was performed as described previously (42). Briefly, control, CystC-, or Δ14CystC-expressing 3T3-L1 or HT1080 cells were cultured onto 24-well plates at a density of 45,000 cells/well and allowed to adhere overnight. The cells were transiently transfected the following morning by overnight exposure to LT1 liposomes (Mirus) containing 300 ng/well p3TP-luciferase and 100 ng/well of pCMV-β-gal. Afterward, the cells were washed twice with PBS and stimulated overnight in serum-free media with increasing concentrations of TGF-β1 as indicated. The following morning, luciferase and β-gal activities contained in detergent-solubilized cell extracts were determined.
The inventor therefore hypothesized that CystC expression might impact TGF-β signaling via a cathepsin B-dependent mechanism. To test this hypothesis, changes in luciferase expression driven by the synthetic p3TP-luciferase reporter gene (26) were measured in control- and CystC-expressing HT1080 cells. Briefly, GFP-, CystC-, or Δ14CystC-expressing HT0180 cells were transiently transfected with p3TP-luciferase and pCMV-β-gal. The transfectants were stimulated with increasing concentrations of TGF-β1 (0-5 ng/ml) as indicated, and subsequently processed to measure luciferase and β-gal activities. […]

TGF-β signaling [3] = experiment: p3TP-luciferase reporter gene assay in 3T3-L1 cells; format: cell-based, murine; details: expression in 3T3-L1 cells; TGF-β1 0-5 ng/ml; compared to control cells
Protocol: as §1
In some experiments, the effects of recombinant CystC and D14CystC on p3TP-luciferase activity 3T3-L1 cells was determined. […] All subsequent procedures were performed as described above.
The present inventor's findings that TGF-β signaling was inhibited by CystC (FIGS. 1 and 2) independent of its actions on cathepsin B lead them to hypothesize CystC as a general antagonist of TGF-β signaling. To test this hypothesis, changes in p3TP-driven luciferase activity were monitored in control, CystC-, Δ14CystC-expressing cells before and after their stimulation with TGF-β. Briefly, GFP-, CystC-, or Δ14CystC-expressing 3T3-L1 cells were transiently transfected with p3TP-luciferase and pCMV-β-gal, and subsequently stimulated with increasing concentrations of TGF-β1 (0-5 ng/ml) as indicated in FIG. 3A. Afterward, luciferase and β-gal activities contained in detergent-solubilized cell extracts were measured. […] Data are the mean (±SE) luciferase activities of four independent experiments normalized to untreated GFP-expressing cells.
The transfectants were then stimulated with TGF-β1 (5 ng/ml) in the absence or presence of recombinant (10 mg/ml) GST, GST-CystC, or GST-D14CystC as indicated in FIG. 3B. […]

NRK kidney fibroblasts = experiment: Soft agar assay, anchorage-independent growth of NRK cells; format: cell-based, rat; details: retroviral-mediated expression in NRK cells; TGF-β1 5 ng/ml; 7 d
Protocol: The growth of NRK cells in soft agar was performed according to the procedures described in (Moustakas et al., 1999). Briefly, duplicate cultures of control-, CystC-, or Δ14CystC-expressing NRK cells (10,000 cells/plate) were grown in 0.3% agar on a cushion of 0.6% agar in 35-mm plates. NRK cell growth in the absence or presence of TGF-β1 (5 ng/ml) was allowed to proceed for 7 d, whereupon the number of colonies formed was quantified under a light microscope.
This hypothesis was tested by infecting NRK cells with bicistronic retrovirus encoding either CystC or Δ14CystC to determine their effects on NRK anchorage-independent growth stimulated by TGF-β. Briefly, rat NRK kidney fibroblasts were infected with control (i.e., pMSCV-IRES-GFP), CystC, or Δ14CystC retroviral supernatants, and the resulting infected cells were isolated by GFP fluorescence on a MoFlo cell sorter 48 hours later. Control, CystC-, and Δ14CystC-expressing NRK cells were cultured in soft-agar in the absence or presence of TGF-β1 (5 ng/ml) for 7 d, whereupon NRK colony formation was quantified by light microscopy. In addition, control, CystC-, and Δ14CystC-expressing NRK cells were allowed to invade through Matrigel matrices in the absence or presence of TGF-β1 (5 ng/ml) for 48 hours.

Molecule	HT1080 cell invasion through Matrigel matrices [1]	TGF-β-stimulated luciferase activity driven by the p3TP promoter (TGF-β signaling [2])	TGF-β-stimulated luciferase activity (p3TP) (TGF-β signaling [3])	morphological transformation (soft agar colony formation) stimulated by TGF-β (NRK kidney fibroblasts)
Δ14CystC: human CystC with deletion of positions 80 to 93 (conserved cysteine proteinase inhibitor motif), retrovirally expressed and secreted (protein, left off: small tags and cut ends) MAGPLRAPLLLLAILAVALAVSPAAGSSPGKPPRLVGGPMDASVEEEGVRRALDFAVGEYNKASNDMYHSRALQVVRARLGRTTCTKTQPNLDNCPFHDQPHLKRKAFCSFQIYAVPWQGTMTLSKSTCQDA	failed to affect	equally effective as CystC	significantly reduced	completely prevented
CystC: full-length human Cystatin C (SEQ ID NO:2), C-terminally Myc- and (His)6-tagged, retrovirally expressed and secreted by the cells (protein, listed as Homo sapiens, C-terminal Myc and His6 tags) MAGPLRAPLLLLAILAVALAVSPAAGSSPGKPPRLVGGPMDASVEEEGVRRALDFAVGEYNKASNDMYHSRALQVVRARKQIVAGVNYFLDVELGRTTCTKTQPNLDNCPFHDQPHLKRKAFCSFQIYAVPWQGTMTLSKSTCQDA	significantly inhibited	significantly inhibited	significantly reduced	completely prevented
